Laboratory results: patent US20240075096A1, “ANTIMICROBIAL PEPTIDE LIQUID COMPOSITION AND FORMULATION THEREOF” (priority 2021, published 2024)
Converted amounts (≈) assume the structure as drawn.

How the values were obtained:
[1] = system: Staphylococcus aureus ATCC29213; assay: In vitro bacteriostatic and bactericidal tests (MIC, MBC); type: cell-based; settings: standard strain ATCC29213
[2] = system: methicillin-resistant Staphylococcus aureus (MRSA) clinical isolates; assay: as above; type: cell-based; settings: MRSA clinical strains
[3] = system: Methicillin-sensitive Staphylococcus aureus (MSSA) clinical isolates; assay: as above; type: cell-based; settings: MSSA clinical strains
[4] = system: Methicillin-resistant coagulase-negative Staphylococcus (MRSCNS) clinical isolates; assay: as above; type: cell-based; settings: MRSCNS clinical strains
[5] = system: Methicillin-sensitive coagulase-negative Staphylococcus (MSSCNS) clinical isolates; assay: as above; type: cell-based; settings: MSSCNS clinical strains
[6] = Stability investigation of antimicrobial peptide compositions (trait, related substances and content by HPLC); type: physicochemical
[7] = 4° C., 0 days, peptide 2‰, stabilizer 1% (Table 2)
[8] = 4° C., 6 months, peptide 2‰, stabilizer 1% (Table 2)
[9] = 4° C., 12 months, peptide 2‰, stabilizer 1% (Table 2)
[10] = 4° C., 24 months, peptide 2‰, stabilizer 1% (Table 2)
[11] = 4° C., 36 months, peptide 2‰, stabilizer 1% (Table 2)
[12] = 25° C., 0 days, different mannitol systems (Table 3)
[13] = 25° C., 0 days, peptide 2‰, stabilizer 1% (Table 1)
[14] = 25° C., 1 month, peptide 2‰, stabilizer 1% (Table 1)
[15] = 25° C., 3 months, different mannitol systems (Table 3)
[16] = 25° C., 3 months, peptide 2‰, stabilizer 1% (Table 1)
[17] = 25° C., 6 months, different mannitol systems (Table 3)
[18] = 25° C., 6 months, peptide 2‰, stabilizer 1% (Table 1)

Question: For `CN[C@H](CC(C)C)C(=O)N[C@H]1C(=O)N[C@@H](CC(N)=O)C(=O)N[C@H]2C(=O)N[C@H]3C(=O)N[C@H](C(=O)N[C@H](C(=O)O)c4cc(O)cc(O)c4-c4cc3ccc4O)[C@H](O)c3ccc(c(Cl)c3)Oc3cc2cc(c3O[C@@H]2O[C@H](CO)[C@@H](O)[C@H](O)[C@H]2O[C@H]2C[C@](C)(N)[C@H](O)[C@H](C)O2)Oc2ccc(cc2Cl)[C@H]1O` [Vancomycin, vancomycin], which “MBC Concentration Range” value [1] is on record?
Answer: Its value is 4 µg/mL (≈ 2.76 µM).

Question: And the “MIC Concentration Range” value [1]?
Answer: Its value is 1 µg/mL (≈ 0.69 µM).

Question: What about the “MIC Concentration Range” value [2] of the same compound?
Answer: The value was 0.5 to 4 µg/mL.

Question: What about the “MIC Concentration Range” value [3] of the same compound?
Answer: Its value is 0.5 to 4 µg/mL.

Question: What about the “MIC Concentration Range” value [4] of the same compound?
Answer: The value was 0.5 to 4 µg/mL.

Question: What about the “MIC Concentration Range” value [5] of the same compound?
Answer: The value was 0.5 to 4 µg/mL.

Question: Which Content [6, 7] does the source give for “KWKSFLKTFKSAAKTVLHTALKAISS [antimicrobial peptide, tested alone as aqueous solution without stabilizer]” here?
Answer: Its Content is 99.87%.

Question: And the “Largest Single Impurity (Related Substance)” value (from here on “Largest Single Impurity”) [6, 7]?
Answer: Its value is 0.19%.

Question: What about the “Total Impurities (Related Substance)” value [6, 7] of the same compound?
Answer: Its value is 0.32%.

Question: And the Trait [6, 7]?
Answer: Its Trait is “colorless clear liquid”.

Question: And the Content [6, 8]?
Answer: Its Content is 97.51%.

Question: What about the “Largest Single Impurity” value [6, 8] of the same compound?
Answer: The value was 0.27%.

Question: What about the “Total Impurities (Related Substance)” value [6, 8] of the same compound?
Answer: The value was 0.58%.

Question: What about the Trait [6, 8] of the same compound?
Answer: Its Trait is “colorless transparent”.

Question: And the Content [6, 9]?
Answer: Its Content is 94.51%.

Question: What about the “Largest Single Impurity” value [6, 9] of the same compound?
Answer: Its value is 0.32%.

Question: And the “Total Impurities (Related Substance)” value [6, 9]?
Answer: The value was 0.68%.

Question: What about the Trait [6, 9] of the same compound?
Answer: Its Trait is “colorless transparent”.

Question: And the Content [6, 10]?
Answer: The Content was 85.57%.

Question: And the “Largest Single Impurity” value [6, 10]?
Answer: Its value is 0.72%.

Question: And the “Total Impurities (Related Substance)” value [6, 10]?
Answer: Its value is 2.01%.

Question: And the Trait [6, 10]?
Answer: Its Trait is “colorless transparent”.

Question: What about the Content [6, 11] of the same compound?
Answer: Its Content is 76.55%.

Question: What about the “Largest Single Impurity” value [6, 11] of the same compound?
Answer: The value was 0.96%.

Question: What about the “Total Impurities (Related Substance)” value [6, 11] of the same compound?
Answer: The value was 3.02%.

Question: And the Trait [6, 11]?
Answer: The Trait was “colorless transparent”.

Question: What about the Content [6, 12] of the same compound?
Answer: The Content was 100.12%.

Question: And the “Largest Single Impurity” value [6, 12]?
Answer: The value was 0.16%.

Question: What about the “Total Impurities (Related Substance)” value [6, 12] of the same compound?
Answer: The value was 0.30%.

Question: And the Trait [6, 12]?
Answer: The Trait was “colorless”.

Question: What about the Content [6, 13] of the same compound?
Answer: Its Content is 99.87%.

Question: What about the “Largest Single Impurity” value [6, 13] of the same compound?
Answer: Its value is 0.19%.

Question: What about the “Total Impurities (Related Substance)” value [6, 13] of the same compound?
Answer: The value was 0.32%.

Question: What about the Trait [6, 13] of the same compound?
Answer: Its Trait is “colorless clear liquid”.

Question: What about the Content [6, 14] of the same compound?
Answer: Its Content is 98.51%.

Question: What about the “Largest Single Impurity” value [6, 14] of the same compound?
Answer: Its value is 0.25%.

Question: What about the “Total Impurities (Related Substance)” value [6, 14] of the same compound?
Answer: The value was 0.53%.

Question: What about the Trait [6, 14] of the same compound?
Answer: Its Trait is “colorless transparent”.

Question: What about the Content [6, 15] of the same compound?
Answer: The Content was 98.42%.

Question: What about the “Largest Single Impurity” value [6, 15] of the same compound?
Answer: Its value is 0.26%.

Question: What about the “Total Impurities (Related Substance)” value [6, 15] of the same compound?
Answer: The value was 0.55%.

Question: What about the Trait [6, 15] of the same compound?
Answer: The Trait was “colorless”.

Question: And the Content [6, 16]?
Answer: The Content was 88.57%.

Question: And the “Largest Single Impurity” value [6, 16]?
Answer: The value was 0.68%.

Question: What about the “Total Impurities (Related Substance)” value [6, 16] of the same compound?
Answer: Its value is 1.96%.

Question: And the Trait [6, 16]?
Answer: The Trait was “colorless transparent”.

Question: And the Content [6, 17]?
Answer: Its Content is 87.67%.

Question: What about the “Largest Single Impurity” value [6, 17] of the same compound?
Answer: Its value is 0.85%.

Question: What about the “Total Impurities (Related Substance)” value [6, 17] of the same compound?
Answer: The value was 1.99%.

Question: What about the Trait [6, 17] of the same compound?
Answer: Its Trait is “colorless”.

Question: And the Content [6, 18]?
Answer: Its Content is 78.88%.

Question: And the “Largest Single Impurity” value [6, 18]?
Answer: The value was 0.98%.

Question: What about the “Total Impurities (Related Substance)” value [6, 18] of the same compound?
Answer: The value was 3.16%.

Question: What about the Trait [6, 18] of the same compound?
Answer: Its Trait is “colorless transparent”.
